Test results as given in publication PMC3433420.
Values joined by “and” are separate entries in the source; they are usually repeats but may differ in a detail not shown here. Equal values may be shown once. Each block holds one substance with its values, some of them ahead of it.

Legend:
[1] = molecular target: PIK3R1 C-terminal SH2 domain (human); experiment: peptide or protein array; SH2/PTB proteins spotted on aldehyde slides, rhodamine peptide titrated in buffer B (20 mM HEPES, 100 mM KCl, 0.1% Tween-20, 5 mM DTT, pH 7.8), 1 h at room temperature; replicate assays
[2] = molecular target: SH2D3A SH2 domain (human) (UniProt Q9BRG2); experiment: as above
[3] = molecular target: SH2D3C SH2 domain (human) (UniProt Q8N5H7); experiment: as above
SHF SH2 domain (human) = SHF SH2 domain (human) (UniProt Q7M4L6); experiment: as above
SHC3 SH2 domain (human) = SHC3 SH2 domain (human) (UniProt Q92529); experiment: as above
[4] = molecular target: PTPN11 tandem SH2 domains (human); experiment: as above
YES1 SH2 domain (human) = YES1 SH2 domain (human) (UniProt P07947); experiment: as above
[5] = molecular target: SH2D1A SH2 domain (human) (UniProt O60880); experiment: as above
[6] = molecular target: RASA1 C-terminal SH2 domain (human); experiment: as above
[7] = molecular target: PIK3R3 tandem SH2 domains (human); experiment: as above
HSH2D SH2 domain (human) = HSH2D SH2 domain (human) (UniProt Q96JZ2); experiment: as above
SH2B3 SH2 domain (human) = SH2B3 SH2 domain (human) (UniProt Q9UQQ2); experiment: as above
[8] = molecular target: RASA1 N-terminal SH2 domain (human) (UniProt P20936); experiment: as above
[9] = molecular target: SH2D1B SH2 domain (human) (UniProt O14796); experiment: as above
GRB10 SH2 domain (human) = GRB10 SH2 domain (human) (UniProt Q13322); experiment: as above
[10] = molecular target: ZAP70 C-terminal SH2 domain (human) (UniProt P43403); experiment: as above
ABL2 SH2 domain (human) = ABL2 SH2 domain (human) (UniProt P42684); experiment: as above
GRAP2 SH2 domain (human) = GRAP2 SH2 domain (human) (UniProt O75791); experiment: as above
LCK SH2 domain (human) = LCK SH2 domain (human) (UniProt P06239); experiment: as above
NCK1 SH2 domain (human) = NCK1 SH2 domain (human) (UniProt P16333); experiment: as above
[11] = molecular target: SYK N-terminal SH2 domain (human); experiment: as above
[12] = molecular target: ErbB3 Y789 non-phosphorylated peptide, rhodamine-labelled (human); experiment: fluorescence polarisation; saturation binding in solution: rhodamine peptide fixed at 10 nM, protein titrated 0.002-10 uM, 20 min at room temperature; assay buffer 20 mM HEPES, 100 mM KCl, 0.1% Tween-20, 5 mM DTT, pH 7.8; apparent KD
TNS4 SH2 domain (human) = TNS4 SH2 domain (human) (UniProt Q8IZW8); experiment: peptide or protein array; SH2/PTB proteins spotted on aldehyde slides, rhodamine peptide titrated in buffer B (20 mM HEPES, 100 mM KCl, 0.1% Tween-20, 5 mM DTT, pH 7.8), 1 h at room temperature; replicate assays
BLK SH2 domain (human) = BLK SH2 domain (human) (UniProt P51451); experiment: as above
[13] = molecular target: SYK tandem SH2 domains (human); experiment: as above
CRKL SH2 domain (human) = CRKL SH2 domain (human) (UniProt P46109); experiment: as above
NCK2 SH2 domain (human) = NCK2 SH2 domain (human) (UniProt O43639); experiment: as above
[14] = molecular target: SH3BP2 SH2 domain (human) (UniProt P78314); experiment: as above
HCK SH2 domain (human) = HCK SH2 domain (human) (UniProt P08631); experiment: as above
BMX SH2 domain (human) = BMX SH2 domain (human) (UniProt P51813); experiment: as above
SRC SH2 domain (human) = SRC SH2 domain (human) (UniProt P12931); experiment: as above
[15] = molecular target: PLCG2 tandem SH2 domains (human); experiment: as above
BLNK SH2 domain (human) = BLNK SH2 domain (human) (UniProt Q8WV28); experiment: as above
[16] = molecular target: PIK3R2 tandem SH2 domains (human) (UniProt O00459); experiment: as above
CRK SH2 domain (human) = CRK SH2 domain (human) (UniProt P46108); experiment: as above
ABL1 SH2 domain (human) = ABL1 SH2 domain (human) (UniProt P00519); experiment: as above
ABL1 SH2 domain (human), sequence (P00519 127-217): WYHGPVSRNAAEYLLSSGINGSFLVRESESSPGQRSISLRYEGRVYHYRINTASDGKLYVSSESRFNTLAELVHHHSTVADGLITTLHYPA

BLK SH2 domain (human), sequence (P51451 124-220): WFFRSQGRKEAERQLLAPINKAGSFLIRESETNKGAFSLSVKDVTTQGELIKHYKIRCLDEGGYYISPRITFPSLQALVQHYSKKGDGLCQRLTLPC
YES1 SH2 domain (human), sequence (P07947 158-255): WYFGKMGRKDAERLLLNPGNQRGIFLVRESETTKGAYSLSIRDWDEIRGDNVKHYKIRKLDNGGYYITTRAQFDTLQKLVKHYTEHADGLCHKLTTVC
SH2D1B SH2 domain (human), sequence (O14796 5-101): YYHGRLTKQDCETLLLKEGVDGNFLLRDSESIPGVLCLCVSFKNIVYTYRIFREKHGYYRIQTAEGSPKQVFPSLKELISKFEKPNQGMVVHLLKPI
SH2D1A SH2 domain (human), sequence (O60880 6-104): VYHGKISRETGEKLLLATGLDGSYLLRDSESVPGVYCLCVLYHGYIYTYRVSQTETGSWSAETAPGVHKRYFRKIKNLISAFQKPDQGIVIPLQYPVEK
SH2D3A SH2 domain (human), sequence (Q9BRG2 15-114): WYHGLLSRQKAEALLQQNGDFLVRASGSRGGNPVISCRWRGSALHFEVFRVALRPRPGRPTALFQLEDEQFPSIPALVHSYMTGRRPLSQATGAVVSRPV
ABL2 SH2 domain (human), sequence (P42684 173-263): as the sequence (P00519 127-217) above, with N9S, G18L, R35L, A53T, S54A, L58V, S61T, S62A, N67S, I84V counted along it
SHF SH2 domain (human), sequence (Q7M4L6 323-418): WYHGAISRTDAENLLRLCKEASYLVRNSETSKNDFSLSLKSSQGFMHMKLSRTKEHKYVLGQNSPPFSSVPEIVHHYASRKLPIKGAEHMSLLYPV
SH3BP2 SH2 domain (human), sequence (P78314 457-555): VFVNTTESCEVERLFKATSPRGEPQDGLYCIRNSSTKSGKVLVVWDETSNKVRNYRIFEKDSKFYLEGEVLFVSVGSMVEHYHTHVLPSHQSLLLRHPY
ZAP70 C-terminal SH2 domain (human), sequence (P43403 whole entry, the tested form may be a part): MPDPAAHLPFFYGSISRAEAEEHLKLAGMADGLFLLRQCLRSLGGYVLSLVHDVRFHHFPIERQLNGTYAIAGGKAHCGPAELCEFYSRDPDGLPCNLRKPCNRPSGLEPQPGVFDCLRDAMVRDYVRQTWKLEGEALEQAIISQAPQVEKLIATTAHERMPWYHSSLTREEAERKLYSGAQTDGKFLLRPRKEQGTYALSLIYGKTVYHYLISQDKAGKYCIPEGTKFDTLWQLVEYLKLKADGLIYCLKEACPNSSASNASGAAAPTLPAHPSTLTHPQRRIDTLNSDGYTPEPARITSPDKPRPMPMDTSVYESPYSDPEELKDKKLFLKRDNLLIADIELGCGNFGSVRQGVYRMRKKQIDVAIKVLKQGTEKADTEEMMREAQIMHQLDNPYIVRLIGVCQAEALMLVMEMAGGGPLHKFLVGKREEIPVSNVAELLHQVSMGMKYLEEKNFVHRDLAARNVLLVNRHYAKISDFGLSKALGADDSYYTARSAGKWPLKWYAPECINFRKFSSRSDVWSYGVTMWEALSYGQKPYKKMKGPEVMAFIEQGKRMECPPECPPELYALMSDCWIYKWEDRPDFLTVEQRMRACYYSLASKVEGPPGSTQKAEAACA
HSH2D SH2 domain (human), sequence (Q96JZ2 34-125): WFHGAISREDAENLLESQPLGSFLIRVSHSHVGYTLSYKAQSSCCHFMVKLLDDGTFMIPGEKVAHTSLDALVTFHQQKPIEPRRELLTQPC
GRB10 SH2 domain (human), sequence (Q13322 493-574): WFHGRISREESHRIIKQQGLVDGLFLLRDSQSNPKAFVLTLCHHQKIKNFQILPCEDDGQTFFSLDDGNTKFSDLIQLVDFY
PIK3R2 tandem SH2 domains (human), sequence (O00459 whole entry, the tested form may be a part): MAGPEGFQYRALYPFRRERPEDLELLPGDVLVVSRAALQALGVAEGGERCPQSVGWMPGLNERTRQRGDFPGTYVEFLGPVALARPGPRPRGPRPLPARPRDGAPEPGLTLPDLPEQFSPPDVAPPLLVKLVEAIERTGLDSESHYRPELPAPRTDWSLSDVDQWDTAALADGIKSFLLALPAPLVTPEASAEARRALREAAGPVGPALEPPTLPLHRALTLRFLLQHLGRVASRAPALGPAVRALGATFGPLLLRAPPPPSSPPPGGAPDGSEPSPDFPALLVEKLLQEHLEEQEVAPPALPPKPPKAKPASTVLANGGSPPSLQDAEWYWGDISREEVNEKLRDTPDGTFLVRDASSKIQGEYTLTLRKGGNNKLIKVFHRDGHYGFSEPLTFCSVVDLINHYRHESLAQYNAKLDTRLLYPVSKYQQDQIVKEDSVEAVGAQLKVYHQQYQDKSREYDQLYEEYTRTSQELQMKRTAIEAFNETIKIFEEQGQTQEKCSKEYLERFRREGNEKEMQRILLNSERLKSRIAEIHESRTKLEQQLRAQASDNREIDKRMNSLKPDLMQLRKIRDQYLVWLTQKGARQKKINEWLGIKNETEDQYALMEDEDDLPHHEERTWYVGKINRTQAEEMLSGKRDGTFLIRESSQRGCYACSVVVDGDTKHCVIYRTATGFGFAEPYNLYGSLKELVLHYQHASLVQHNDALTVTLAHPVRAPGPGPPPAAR
SHC3 SH2 domain (human), sequence (Q92529 499-590): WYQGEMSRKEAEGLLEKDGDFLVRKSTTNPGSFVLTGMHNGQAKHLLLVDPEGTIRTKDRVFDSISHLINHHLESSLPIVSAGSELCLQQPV
BMX SH2 domain (human), sequence (P51813 296-392): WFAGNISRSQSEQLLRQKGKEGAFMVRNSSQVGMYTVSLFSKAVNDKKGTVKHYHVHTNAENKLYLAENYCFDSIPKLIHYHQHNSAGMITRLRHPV
RASA1 N-terminal SH2 domain (human), sequence (P20936 whole entry, the tested form may be a part): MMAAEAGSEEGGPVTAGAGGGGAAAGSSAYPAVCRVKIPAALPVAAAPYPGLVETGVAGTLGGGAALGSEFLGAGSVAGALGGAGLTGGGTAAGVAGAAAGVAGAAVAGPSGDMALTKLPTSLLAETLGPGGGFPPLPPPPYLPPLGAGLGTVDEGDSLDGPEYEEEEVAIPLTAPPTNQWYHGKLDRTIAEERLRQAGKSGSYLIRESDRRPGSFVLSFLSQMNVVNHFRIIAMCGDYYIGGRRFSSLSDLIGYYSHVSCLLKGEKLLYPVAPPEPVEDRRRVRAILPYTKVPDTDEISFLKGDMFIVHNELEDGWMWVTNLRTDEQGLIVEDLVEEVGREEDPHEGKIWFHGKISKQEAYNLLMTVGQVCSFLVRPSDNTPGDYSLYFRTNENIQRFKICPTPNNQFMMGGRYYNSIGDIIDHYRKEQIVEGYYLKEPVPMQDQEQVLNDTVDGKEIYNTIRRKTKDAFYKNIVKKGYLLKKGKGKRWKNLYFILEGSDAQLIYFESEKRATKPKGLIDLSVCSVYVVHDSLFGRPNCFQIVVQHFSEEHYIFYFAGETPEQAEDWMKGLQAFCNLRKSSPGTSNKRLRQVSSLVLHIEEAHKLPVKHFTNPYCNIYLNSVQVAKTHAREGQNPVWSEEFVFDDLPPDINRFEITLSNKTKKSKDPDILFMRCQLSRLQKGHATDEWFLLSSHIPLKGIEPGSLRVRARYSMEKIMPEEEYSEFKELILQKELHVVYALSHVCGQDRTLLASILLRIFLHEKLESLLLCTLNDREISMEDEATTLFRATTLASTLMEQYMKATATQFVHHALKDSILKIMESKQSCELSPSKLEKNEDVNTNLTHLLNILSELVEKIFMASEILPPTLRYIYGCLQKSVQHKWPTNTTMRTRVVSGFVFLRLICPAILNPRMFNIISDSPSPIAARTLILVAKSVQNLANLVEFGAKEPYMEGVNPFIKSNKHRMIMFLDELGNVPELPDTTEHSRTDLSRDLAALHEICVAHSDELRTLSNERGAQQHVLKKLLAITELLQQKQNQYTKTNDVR
SH2D3C SH2 domain (human), sequence (Q8N5H7 220-319): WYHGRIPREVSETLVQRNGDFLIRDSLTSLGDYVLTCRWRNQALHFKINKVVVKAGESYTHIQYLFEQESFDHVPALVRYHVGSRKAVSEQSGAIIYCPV
BLNK SH2 domain (human), sequence (Q8WV28 346-453): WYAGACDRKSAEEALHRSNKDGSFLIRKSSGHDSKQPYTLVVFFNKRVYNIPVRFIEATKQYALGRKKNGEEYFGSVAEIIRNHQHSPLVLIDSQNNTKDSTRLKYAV
SH2B3 SH2 domain (human), sequence (Q9UQQ2 364-462): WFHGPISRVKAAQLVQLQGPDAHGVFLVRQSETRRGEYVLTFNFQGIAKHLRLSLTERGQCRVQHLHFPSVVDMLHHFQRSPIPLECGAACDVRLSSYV
CRKL SH2 domain (human), sequence (P46109 14-102): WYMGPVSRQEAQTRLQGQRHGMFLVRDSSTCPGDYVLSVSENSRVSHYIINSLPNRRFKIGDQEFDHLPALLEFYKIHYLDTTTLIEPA
NCK2 SH2 domain (human), sequence (O43639 285-380): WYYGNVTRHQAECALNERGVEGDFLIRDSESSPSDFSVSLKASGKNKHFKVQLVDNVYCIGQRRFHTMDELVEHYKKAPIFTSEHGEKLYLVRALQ
CRK SH2 domain (human), sequence (P46108 13-118): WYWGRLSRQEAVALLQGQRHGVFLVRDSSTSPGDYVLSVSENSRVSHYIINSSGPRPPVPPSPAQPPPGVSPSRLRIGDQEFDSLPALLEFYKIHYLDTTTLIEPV
GRAP2 SH2 domain (human), sequence (O75791 58-149): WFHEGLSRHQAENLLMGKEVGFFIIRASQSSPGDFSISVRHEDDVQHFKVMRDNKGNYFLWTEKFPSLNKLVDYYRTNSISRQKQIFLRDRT
HCK SH2 domain (human), sequence (P08631 144-241): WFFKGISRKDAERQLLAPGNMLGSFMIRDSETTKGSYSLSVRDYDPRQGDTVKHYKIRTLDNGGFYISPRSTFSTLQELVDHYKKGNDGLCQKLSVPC
LCK SH2 domain (human), sequence (P06239 127-224): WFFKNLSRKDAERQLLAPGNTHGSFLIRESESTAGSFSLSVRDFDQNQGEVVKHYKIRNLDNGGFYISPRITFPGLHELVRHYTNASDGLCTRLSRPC

- Kd [1]: 438 nM
- Kd [2]: 603 nM and 790 nM and 912 nM
- Kd [3]: 9360 nM
- Kd (SHF SH2 domain (human)): 2700 nM and 8500 nM
- Kd (SHC3 SH2 domain (human)): 7660 nM
- Kd [4]: 177 nM
- Kd (YES1 SH2 domain (human)): 1180 nM and 1170 nM and 421 nM
- Kd [5]: 823 nM and 1610 nM and 1680 nM
- Kd [6]: 10400 nM
- Kd [7]: 7820 nM and 10500 nM
- Kd (HSH2D SH2 domain (human)): 2210 nM
- Kd (SH2B3 SH2 domain (human)): 1180 nM
- Kd [8]: 685 nM
- Kd [9]: 404 nM and 1280 nM and 1340 nM
- Kd (GRB10 SH2 domain (human)): 1270 nM
- Kd [10]: 1530 nM and 1520 nM and 404 nM
- Kd (ABL2 SH2 domain (human)): 1370 nM and 1730 nM and 268 nM
- Kd (GRAP2 SH2 domain (human)): 852 nM
- Kd (LCK SH2 domain (human)): 1240 nM
- Kd (NCK1 SH2 domain (human)): 724 nM
- Kd [11]: 3040 nM and 3450 nM and 803 nM
Substance: ErbB4 pY733 phosphopeptide (18-mer), rhodamine-labelled, for protein microarrays

- Kd [12]: 1590 nM
Substance: PIK3R1 tandem SH2 domains (from UniProt P27986 1-724) (domain or fragment)

- Kd [2]: 605 nM
- Kd (TNS4 SH2 domain (human)): 323 nM
- Kd (SHF SH2 domain (human)): 1190 nM
- Kd (BLK SH2 domain (human)): 1150 nM and 1160 nM and 583 nM
- Kd [13]: 811 nM and 1290 nM and 285 nM
- Kd (YES1 SH2 domain (human)): 1320 nM and 818 nM
- Kd [5]: 766 nM
- Kd (CRKL SH2 domain (human)): 107 nM
- Kd (NCK2 SH2 domain (human)): 211 nM
- Kd [7]: 544 nM
- Kd [14]: 2360 nM and 10900 nM and 1240 nM
- Kd (HCK SH2 domain (human)): 70 nM
- Kd (BMX SH2 domain (human)): 419 nM
- Kd (HSH2D SH2 domain (human)): 994 nM
- Kd (SRC SH2 domain (human)): 443 nM
- Kd [15]: 1250 nM and 1380 nM
- Kd (BLNK SH2 domain (human)): 4000 nM
- Kd [16]: 1340 nM
- Kd (GRB10 SH2 domain (human)): 234 nM
- Kd [10]: 791 nM
- Kd (ABL2 SH2 domain (human)): 906 nM and 283 nM
- Kd [11]: 15600 nM and 9490 nM
- Kd (CRK SH2 domain (human)): 64500 nM
- Kd (ABL1 SH2 domain (human)): 250 nM
Substance: ErbB4 pY1221 phosphopeptide (18-mer), rhodamine-labelled, for protein microarrays
